# Reference: patent US20150203577A1 (Chugai, published 2015)
# Substitutions are numbered along the chain they refer to.
# T1: mouse FcγRII (mouse, UniProt P08101 30-210)
# T1 construct: Extracellular domain with C-terminal His tag; also called mFcγRII; mFcgRII
# T1 sequence: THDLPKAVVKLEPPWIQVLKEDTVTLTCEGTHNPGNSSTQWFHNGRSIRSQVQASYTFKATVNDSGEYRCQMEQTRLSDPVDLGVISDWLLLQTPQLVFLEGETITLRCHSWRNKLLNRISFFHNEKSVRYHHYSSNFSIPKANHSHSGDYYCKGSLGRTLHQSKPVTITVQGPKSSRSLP
# T2: mouse FcγRIII (mouse, UniProt P08508 31-215)
# T2 construct: Extracellular domain with C-terminal His tag; also called mFcγRIII; mFcgRIII
# T2 chain: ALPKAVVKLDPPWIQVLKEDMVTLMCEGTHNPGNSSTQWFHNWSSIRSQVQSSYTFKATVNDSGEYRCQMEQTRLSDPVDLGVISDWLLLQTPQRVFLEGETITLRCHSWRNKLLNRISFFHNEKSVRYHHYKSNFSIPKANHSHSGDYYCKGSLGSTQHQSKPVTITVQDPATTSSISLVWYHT
# B1: MB817 (antibody, mouse IgG1, kappa)
# heavy: QVQLQESGPGLVKPSETLSLTCAVSGHSISHDHAWSWVRQPPGEGLEWIGFISYSGITNYNPSLQGRVTISRDNSKNTLYLQMNSLRAEDTAVYYCARSLARTTAMDYWGEGTLVTVSSAKTTPPSVYPLAPGSAAQTNSMVTLGCLVKGYFPEPVTVTWNSGSLSSGVHTFPAVLQSDLYTLSSSVTVPSSTWPSETVTCNVAHPASSTKVDKKIVPRDCGCKPCICEPNEVELVFIFPPKPKDVLTITLTPKVTCVVVDISKDDPEVQFSWFVDDVEVHTAQTQPREEQFNSTFRSVSELPIMHQDWLNGKEFKCRVMSAGFPAPIEKTISKTKGRPKAPQVYTIPPPKEQMAKDKVSLTCMITDFFPEDITVEWQWNGQPAENYKNTQPIMDTDGSYFVYSKLNVQKSNWEAGNTFTCSVLHEGLHNHHTEKSLSHSPGK
# light: not shown
# notes: CH name; VH H237 + CH, L chain MRAL-k0; copies: 2 + 2
# B2: MB825 (antibody, mouse IgG1, kappa)
# heavy: B1 heavy with M320N, A322D, G323A, E329Y
# light: not shown
# notes: as for B1
# B3: MB820 (antibody, mouse IgG1, kappa)
# heavy: B1 heavy with G323A, E329Y
# light: not shown
# notes: as for B1
# B4: MB819 (antibody, mouse IgG1, kappa)
# heavy: B1 heavy with G323A, P327Y
# light: not shown
# notes: as for B1
# B5: MB823 (antibody, mouse IgG1, kappa)
# heavy: B1 heavy with M320N, A322D, G323A, P327F
# light: not shown
# notes: as for B1
# B6: MB818 (antibody, mouse IgG1, kappa)
# heavy: B1 heavy with G323A, P327F
# light: not shown
# notes: as for B1
# B7: MB822 (antibody, mouse IgG1, kappa)
# heavy: B1 heavy with M320N, A322D
# light: not shown
# notes: as for B1
# B8: MB827 (antibody, mouse IgG1, kappa)
# heavy: B1 heavy with M320N, P327Y
# light: not shown
# notes: as for B1
# B9: MB821 (antibody, mouse IgG1, kappa)
# heavy: B1 heavy with G323A, K330R
# light: not shown
# notes: as for B1
# B10: MB824 (antibody, mouse IgG1, kappa)
# heavy: B1 heavy with M320N, A322D, G323A, P327Y
# light: not shown
# notes: as for B1
# B11: MB826 (antibody, mouse IgG1, kappa)
# heavy: B1 heavy with M320N, P327F
# light: not shown
# notes: as for B1
# Target: T1, mouse FcγRII
# Test: SPR (Biacore T200); KD of H237-mIgG1/MRAL-k0 / KD of variant
row,relative mFcγRII-binding activity (mIgG1 = 1),Binder
1,28.5 fold,B1
2,28.4 fold,B2
3,19.5 fold,B3
4,18.1 fold,B4
5,25 fold,B5
6,15.6 fold,B6
7,43.8 fold,B7
8,21.5 fold,B8
9,24.4 fold,B9
10,28 fold,B10
11,18.5 fold,B11

# Target: T2, mouse FcγRIII
# Test: as above
row,relative mFcγRIII-binding activity (mIgG1 = 1),Binder
1,0.52 fold,B1
2,0.5 fold,B2
3,0.33 fold,B3
4,0.32 fold,B4
5,0.49 fold,B5
6,0.29 fold,B6
7,0.93 fold,B7
8,0.38 fold,B8
9,0.45 fold,B9
10,0.56 fold,B10
11,0.34 fold,B11

# Target: T1, mouse FcγRII
# Test: SPR (Biacore T200); KD of H237-MB630/MRAL-k0 / KD of variant
row,Relative mFcγRII-binding activity (MB630 = 1),Binder
1,2.17 fold,B1
2,2.16 fold,B2
3,1.49 fold,B3
4,1.38 fold,B4
5,1.9 fold,B5
6,1.19 fold,B6
7,3.33 fold,B7
8,1.63 fold,B8
9,1.86 fold,B9
10,2.13 fold,B10
11,1.41 fold,B11

# Target: T2, mouse FcγRIII
# Test: as above
row,Relative mFcγRIII-binding activity (MB630 = 1),Binder
1,2.27 fold,B1
2,2.17 fold,B2
3,1.43 fold,B3
4,1.4 fold,B4
5,2.13 fold,B5
6,1.25 fold,B6
7,4.02 fold,B7
8,1.64 fold,B8
9,1.96 fold,B9
10,2.45 fold,B10
11,1.48 fold,B11
